# Data from article PMC11992040.
# Tests used:
# [1] = target: SmT2 (CT), T4 foldon-trimerized SARS-CoV-2 spike ectodomain with complex-type N-glycans (SARS-CoV-2 | bacteriophage T4) (UniProt P0DTC2); assay: SEC-MALS
# [2] = target: SmT2 (HM), T4 foldon-trimerized SARS-CoV-2 spike ectodomain with high-mannose N-glycans (SARS-CoV-2 | bacteriophage T4) (UniProt P0DTC2); assay: SEC-MALS
# [3] = target: SmT1 (CT), resistin-trimerized SARS-CoV-2 spike ectodomain with complex-type N-glycans (SARS-CoV-2 | human) (UniProt P0DTC2); assay: SEC
substance,measurement,setting,value
"SmT2 (CT), T4 foldon-trimerized SARS-CoV-2 spike ectodomain with complex-type N-glycans (from UniProt P0DTC2 14-1208)",stoichiometry N,[1],3
"SmT2 (HM), T4 foldon-trimerized SARS-CoV-2 spike ectodomain with high-mannose N-glycans (from UniProt P0DTC2 14-1208)",stoichiometry N,[2],3
"SmT1 (CT), resistin-trimerized SARS-CoV-2 spike ectodomain with complex-type N-glycans (from UniProt P0DTC2;Q9HD89-1)",stoichiometry N,[3],3
